The source of these data is patent US20170137855A1, “RECOMBINANT CELLS AND METHODS FOR NONPHOSPHORYLATIVE METABOLISM” (REGENTS OF THE UNIVERSITY OF MINNESOTA, priority 2015, published 2017).

Substrate in series [1]: OC1OC[C@H](O)[C@H](O)[C@H]1O
As to the kind of experiment: L-arabinose dehydrogenase, NADH generation at 340 nm. The series is classed as biochemical, Burkholderia multivorans. Conditions: other: L-arabinose 0 to 10 mM, 1 mM NAD+, pH 7.5, 30° C. Here is the method: A series of enzymatic assays were conducted to estimate the initial activity as a function of starting substrate concentration. […] Kinetic constants (kcat/Km) for following enzymes were calculated with the same method.

Substrate in series [2]: O=C(O)[C@H](O)[C@@H](O)[C@H](O)CO
As to the kind of experiment: C. crescentus D-xylonate dehydratase, semicarbazide method. The note with it: other: 100 nM enzyme, 100 mM Tris-HCl, 5 mM MgSO4, pH 7.5. The series is classed as biochemical, Caulobacter crescentus. The source says: (§1) Finally, the 2-ketoacids produced were quantified by detecting their semicarbazone absorbance at 250 nm.

Substrate in series [3]: O=C(O)[C@H]1OC(O)[C@H](O)[C@@H](O)[C@H]1O
As to the kind of experiment: purified protein, by the assay type. The note with it: other: D-galacturonate 0 to 10 mM, 1 mM NAD+, pH 7.5, 30° C., 30.0 °C.

Substrate in series [4]: O=C(O)[C@H](O)[C@@H](O)[C@@H](O)CO
As to the kind of experiment: L-arabonate dehydratase, semicarbazide method. The series is classed as biochemical, Burkholderia multivorans. The note with it: other: 100 nM enzyme, 100 mM Tris-HCl, 5 mM MgSO4, pH 7.5.
Source text: as §1

Substrate in series [5]: O=C(O)C(=O)C[C@H](O)CO
As to the kind of experiment: C. crescentus 2-keto-3-deoxy-D-xylonate dehydratase, coupled assay with KGSADH. The series is classed as biochemical, Caulobacter crescentus. Conditions: other: coupled assay, substrate from 0-20 mM D-xylonate, 1 mM NAD+, pH 7.5, 25° C. As to the method: (§2) 2-Keto-3-deoxy-D-xylonate dehydratase (XylX/DR64-8450), 2-keto-3-deoxy-L-arabonate dehydratase (AraD) and 5-keto-4-deoxy-D-glucarate dehydratase (YcbC): Enzyme activities of XylX, DR64-8450, AraD and YcbC were assayed spectrophotometrically in a coupled assay with the corresponding previous dehydratase and 2-ketoglutaric semialdehyde dehydrogenase (KGSADH) as previously described (Watanabe et al., 2006. J Biol. Chem. 281:33521-33536). […] The reaction was initiated by adding an appropriate amount of 2-keto-3-deoxy-D-xylonate dehydratase (XylX/DR64-8450)/2-keto-3-deoxy-L-arabonate dehydratase (AraD)/5-keto-4-deoxy-D-glucarate dehydratase (YcbC), and the increasing absorbance at 340 nm caused by NADH produced in the reaction was monitored.

Substrate in series [6]: O=C(O)[C@H](O)[C@@H](O)[C@H](O)CO
As to the kind of experiment: B. xenovorans D-xylonate dehydratase, semicarbazide method. The note with it: other: 100 nM enzyme, 100 mM Tris-HCl, 5 mM MgSO4, pH 7.5. The series is classed as biochemical, Burkholderia xenovorans LB400.
Source text: as §1

Substrate in series [7]: O=C(O)C(=O)C[C@H](O)CO
As to the kind of experiment: B. xenovorans 2-keto-3-deoxy-D-xylonate dehydratase, coupled assay with KGSADH. The series is classed as biochemical, Burkholderia xenovorans LB400. Conditions: other: coupled assay, substrate from 0-20 mM D-xylonate, 1 mM NAD+, pH 7.5, 25° C. Here is the method:
as §2

Substrate in series [8]: O=C(O)C(=O)C[C@@H](O)CO
As to the kind of experiment: 2-keto-3-deoxy-L-arabonate dehydratase, coupled assay with KGSADH. The series is classed as biochemical, Burkholderia multivorans. Conditions: other: coupled assay, substrate from 0-20 mM L-arabonate, 1 mM NAD+, pH 7.5, 25° C. Here is the method:
as §2

Substrate in series [9]: O=C(O)[C@@H](O)[C@H](O)[C@H](O)[C@@H](O)C(=O)O
As to the kind of experiment: purified protein, by the assay type. Conditions: other: 100 nM enzyme, 100 mM Tris-HCl, 5 mM MgSO4, pH 7.5.

B1: Burkholderia multivorans L-arabinose dehydrogenase (AraA, BmulJ 5320) (Burkholderia multivorans ATCC 17616) (protein)
chain: MSQVVSLGVVGIGKIARDQHLPAIAAEPGFALTACASRHAEVTGVRNYPDLGALLAGEPELAAVSLCAPPQVRYAQARAALNAGKHVMLEKPPGATLGEVAALEALAQSRGLTLFATWHSRCASAVEPARAWLATREIRAVQVRWKEDVRRWHPGQQWIWEPGGLGVFDPGINALSIVTRILPRELVLREATLVVPSDTQTPIAAELECADTDGVPVHAEFDWRHGPVEQWEIAVDTADGVLAISAGGAKLSIAGEPVEVGPAREYPALYAQFHALIARRESDVDVRPLRLVADAFLFGRRVDTEAFGR
notes: gene from B. multivorans genomic DNA
For B1, the kcat (commonly the maximal rate divided by the concentration of active sites) in [1] was 101.4 s⁻¹.

B2: Caulobacter crescentus D-xylonate dehydratase (XylD) (Caulobacter vibrioides CB15) (protein)
chain: MRSALSNRTPRRFRSRDWFDNPDHIDMTALYLERFMNYGITPEELRSGKPIIGIAQTGSDISPCNRIHLDLVQRVRDGIRDAGGIPMEFPVHPIFENCRRPTAALDRNLSYLGLVETLHGYPIDAVVLTTGCDKTTPAGIMAATTVNIPAIVLSGGPMLDGWHENELVGSGTVIWRSRRKLAAGEITEEEFIDRAASSAPSAGHCNTMGTASTMNAVAEALGLSLTGCAAIPAPYRERGQMAYKTGQRIVDLAYDDVKPLDILTKQAFENAIALVAAAGGSTNAQPHIVAMARHAGVEITADDWRAAYDIPLIVNMQPAGKYLGERFHRAGGAPAVLWELLQQGRLHGDVLTVTGKTMSENLQGRETSDREVIFPYHEPLAEKAGFLVLKGNLFDFAIMKSSVIGEEFRKRYLSQPGQEGVFEARAIVFDGSDDYHKRINDPALEIDERCILVIRGAGPIGWPGSAEVVNMQPPDHLLKKGIMSLPTLGDGRQSGTADSPSILNASPESAIGGGLSWLRTGDTIRIDLNTGRCDALVDEATIAARKQDGIPAVPATMTPWQEIYRAHASQLDTGGVLEFAVKYQDLAAKLPRHNH
notes: His; made in house; host or cells: E. coli BL21
Take B2: in series [2], the Km (in general, the substrate concentration at which the rate is half of its maximum) was found to be 1180 ± 50 µM; the kcat was 7.6 ± 1.1 s⁻¹; the kcat/Km (commonly the second-order rate constant that governs catalysis at low substrate concentration) came out at 6400 M⁻¹ s⁻¹.

B3: Pseudomonas putida KT2440 uronate dehydrogenase (Udh) (Pseudomonas putida KT2440) (protein)
chain: MTTTPFNRLLLTGAAGGLGKVLRERLKGYAEVLRLSDISPMAPAAGPHEEVITCDLADKAAVHTLVEGVDAIIHFGGVSTEHAFEEILGPNICGVFHVYEAARKHGVKRIIFASSNHTIGFYRQDERIDAHAPRRPDSYYGLSKCYGEDVASFYFDRYGIETVSIRIGSSFPQPQNLRMLCTWLSYDDLVQLIERGLFTPGVGHTIVYGASDNRTVWWDNRHAAHLGYVPKDSSETFRAAVEAQPAPAADDPSMVYQGGAFAVAGPFN
With B3, in [3], the Km was found to be 150 µM and the kcat was 24.1 s⁻¹.

B4: Burkholderia multivorans L-arabonate dehydratase (AraC, BmulJ 5323) (Burkholderia multivorans ATCC 17616) (protein)
chain: MSATKPRLRSAQWFGTNDKNGFMYRSWMKNQGIPDHEFDGRPIIGICNTWSELTPCNAHFRKLAEHVKRGIFEAGGFPVEFPVFSNGESNLRPSAMLTRNLASMDVEEAIRGNPIDAVVLLAGCDKTTPALLMGAASCDVPAIVVSGGPMLNGKLEGKNIGSGTAVWQLHEALKAGEIDLHHFLSAEAGMSRSAGTCNTMGTASTMACMAEALGVALPHNAAIPAVDSRRYVLAHMSGIRIVEMALEGLVLSKVLTRAAFENAIRVNAAIGGSTNAVIHLKAIAGRIGVPLELEDWMRIGRDTPTIVDLMPSGRFLMEEFYYAGGLPAVLRRLGEGGLLPHPDALTVNGKTLWDNVREAPNYDDEVIRPLDRPLIADGGIRILRGNLAPRGAVLKPSAASPELLKHRGRAVVFENFDHYKATINDESLDVDANSVLVLKNCGPRGYPGMAEVGNMGLPPKLLRQGVKDMVRISDARMSGTAYGTVVLHVAPEAAAGGPLAAVRNGDWIELDCEAGTLHLDIPDDELQRRLSDVDPAAAPGVAGQAGKGGYARLYLDHVLQADEGCDLDFLVGTRGAEVPSHSH
notes: as for B1
For the protein B4, the kcat in series [4] came out at 0.17 s⁻¹.

B5: Caulobacter crescentus 2-keto-3-deoxy-D-xylonate dehydratase (XylX) (Caulobacter vibrioides NA1000) (protein)
chain: MGVSEFLPEDWKAATLLGRIDFGEGPTPVLVRGGRVEDVSKIAPTVADLMNAFQPGAVIPRGEDKGPLEALDIRPVWEDPDGAAPVKLLAPVDLQCLKAAGVTFAVSTLERVIEERARGDAGEALKIRTLLAERMGGDLKSVEPGSQGAQRLKDALIADGLWSQYLEVAIGPDAEIFTKGPTLSSMGWGDQVGVRYDSHWNNPEPEVVLLCDGSGLIRGAALGNDVNLRDFEGRSALLLSKAKDNNASCAIGPFFRLFDETFGLDDVRSAEVELKITGRDNFVLDGKSNMSLISRDPAVLAGQAYGKQHQYPDGFALFLGTMFAPIQDRDTPGQGFTHKVGDRVRVSTPKLGVLENEVTTCDKAKPWTFGISALIRNLAGRGLL
notes: coupled with XylD and KGSADH; BlpI site removed in gene
Turning to B5, in series [5], the Km was 1900 ± 80 µM, the kcat is 0.53 ± 0.1 s⁻¹ and the kcat/Km turned out to be 260 M⁻¹ s⁻¹.

B6: Burkholderia xenovorans LB400 D-xylonate dehydratase (DR64_8449) (Paraburkholderia xenovorans LB400) (protein)
chain: MSASTPRRLRSQEWFDDPSHADMTALYVERFMNYGLTREELQSGRPIIGIAQTGSDLAPCNRHHIELAARTKAGIRDAGGIPMEFPVHPLAEQSRRPTAALDRNLAYLGLVEILHGFPLDGVVLTTGCDKTTPACLMAAATVDMPAIVLSGGPMLDGWHEGKRVGSGTVIWHARNLLATGEIDYEGFMQLTTASSPSIGHCNTMGTALSMNSLAEALGMSLPGCASIPAAYRERGQMAYATGKRIVDLVREDVRPSHIMTKAAFENAIVVASALGASTNCPPHLIAIARHMGVELTLDDWQRVGEQVPLIVNCMPAGEYLGESFHRAGGVPAVLRELVHAQLVHRECLTVSGRTIGEIAADAPSPDRDVIRTTEDPLKHGAGFIVLSGNFFDSAIMKMSVVGEAFRQTYLSEPGNENTFEARAIVFDGPEDYHARINDPSLDIDQHCILVIRGAGTVGYPGSAEVVNMAPPAELVRQGITSLPTLGDGRQSGTSASPSILNMSPEAAVGGGLSLLRTNDRIRVDLNSRSVNVLVDDEELARRRETATFAIPPTQTPWQELYRQTVGQLSTGGCLEPATLYLKVIAERGNPRHSH
notes: gene from LB400 genomic DNA
As to B6, in series [6], the Km came out at 1520 ± 80 µM, the kcat came out at 1.73 ± 0.3 s⁻¹ and the kcat/Km is 1140 M⁻¹ s⁻¹.

B7: Burkholderia xenovorans LB400 2-keto-3-deoxy-D-xylonate dehydratase (DR64_8450) (Paraburkholderia xenovorans LB400) (protein)
chain: MSATSPSSFLPDDLGQALLVGRVWRKTDQHEGPSVVVVRGGEVFDITATVPTTADLFDREDAAPLARTAPGVSLGAVAQLIASNLPGAAAPALRLLAPCDVQAIKACGVTFAVSLIERVIEEQAAGDPAKAKEVRDTIASMIGTDLSKIEPGSDAAMKLKAELERRGAWSQYMEVGIGPDAEVFSKSQPMSAVGFGADVGLLAASTWNNPEPEIVLAVNSRGEIVGATLGNDVNLRDIEGRSALLLGKCKDNNGSCAIGPFVRLFDESFSLDSVRTASVALRVEGADDGFVLEGVSHMSEISRDPANLVAQTWGRHHQYPDGFMLFLGTMFSPIKDRDAPGAGFTHHLGDLVTISTPQLGALTNTVRLSTEIEPWTFGVRALYRNLAARGLLASA
notes: coupled with D-xylonate dehydratase and KGSADH
Take B7: in [7], the Km turned out to be 8960 ± 200 µM, the kcat was 4.72 ± 0.5 s⁻¹ and the kcat/Km was found to be 530 M⁻¹ s⁻¹.

B8: Burkholderia multivorans 2-keto-3-deoxy-L-arabonate dehydratase (AraD, BmulJ 5321) (Burkholderia multivorans ATCC 17616) (protein)
chain: MTSSRTPRYRGIFPVVPTTFTETGELDLASQKRAVDFMIDAGSDGLCILANFSEQFALADDERDVLTRTILEHVAGRVPVIVTTSHYSTQTCIARSVRAQQLGAAMVMVMPPYHGATFRVPEAQIHAFYARLSDALSIPIMIQDAPASGTVLSAPFLAQLAREIEHVAYFKIETPGAATKLRELIRLGGDAIEGPWDGEEAITLLADLHAGATGAMTGGAYPDGIRPILEAHREGRHDDAFARYQTWLPLINHENRQSGILTAKALMREGGVIACEAPRHPMPTLHPDTRAELIAIARRLDPLVLRWAR
notes: coupled with AraC and KGSADH
In the case of B8, in series [8], the Michaelis constant (Km) was determined as 9700 µM and the kcat was determined as 0.23 s⁻¹.

B9: E. coli D-galactarate dehydratase (GarD) (Escherichia coli K-12) (protein)
chain: MANIEIRQETPTAFYIKVHDTDNVAIIVNDNGLKAGTRFPDGLELIEHIPQGHKVALLDIPANGEIIRYGEVIGYAVRAIPRGSWIDESMVVLPEAPPLHTLPLATKVPEPLPPLEGYTFEGYRNADGSVGTKNLLGITTSVHCVAGVVDYVVKIIERDLLPKYPNVDGVVGLNHLYGCGVAINAPAAVVPIRTIHNISLNPNFGGEVMVIGLGCEKLQPERLLTGTDDVQAIPVESASIVSLQDEKHVGFQSMVEDILQIAERHLQKLNQRQRETCPASELVVGMQCGGSDAFSGVTANPAVGYASDLLVRCGATVMFSEVTEVRDAIHLLTPRAVNEEVGKRLLEEMEWYDNYLNMGKTDRSANPSPGNKKGGLANVVEKALGSIAKSGKSAIVEVLSPGQRPTKRGLIYAATPASDFVCGTQQVASGITVQVFTTGRGTPYGLMAVPVIKMATRTELANRWFDLMDINAGTIATGEETIEEVGWKLFHFILDVASGKKKTFSDQWGLHNQLAVFNPAPVT
For B9, in [9], the Km was determined as 760 µM and the kcat turned out to be 18.9 s⁻¹.
